Results as given in US20260132182A1 (published 2026).
Starred links: 1 amine or outer side, 2 acyl side, 3 side chain; linkers in the order of their positions; H or OH if unused. Non-standard residues stand in square brackets, D forms with d. Groups on a side chain read outwards from the residue. *: point of attachment. C20 diacid = O=C(O)CCCCCCCCCCCCCCCCCCC(=O)*; C18 diacid = O=C(O)CCCCCCCCCCCCCCCCC(=O)*; C16 diacid = O=C(O)CCCCCCCCCCCCCCC(=O)*; γGlu = O=C(O)[C@H](CCC(=O)[*:2])N[*:1]; C14 diacid = O=C(O)CCCCCCCCCCCCC(=O)*; εLys = N[C@@H](CCCCN[*:1])C(=O)[*:2]; Trx = NC[C@H]1CC[C@H](C(=O)O)CC1; AEEA = NCCOCCOCC(=O)O; Aib = CC(C)(N)C(=O)O; Ahx = NCCCCCC(=O)O

Experiments:
[1] = target: T1, human amylin-3 (a) receptor (human, UniProt P30988 25-474; O60896 24-148); experiment: cell-based or functional assay
T1 sequence (looked up) 1: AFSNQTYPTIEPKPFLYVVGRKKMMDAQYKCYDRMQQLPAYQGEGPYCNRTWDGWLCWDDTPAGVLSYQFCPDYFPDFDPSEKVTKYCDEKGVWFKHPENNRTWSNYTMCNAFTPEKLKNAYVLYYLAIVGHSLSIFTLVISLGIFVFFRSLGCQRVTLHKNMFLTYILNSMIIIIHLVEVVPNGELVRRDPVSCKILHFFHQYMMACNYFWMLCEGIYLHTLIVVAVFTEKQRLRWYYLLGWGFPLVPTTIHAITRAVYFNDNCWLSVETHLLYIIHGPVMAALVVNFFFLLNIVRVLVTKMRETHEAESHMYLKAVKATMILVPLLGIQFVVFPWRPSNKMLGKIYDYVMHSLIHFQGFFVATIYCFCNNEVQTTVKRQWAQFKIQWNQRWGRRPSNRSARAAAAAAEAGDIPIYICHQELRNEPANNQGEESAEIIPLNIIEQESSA
T1 sequence (looked up) 2: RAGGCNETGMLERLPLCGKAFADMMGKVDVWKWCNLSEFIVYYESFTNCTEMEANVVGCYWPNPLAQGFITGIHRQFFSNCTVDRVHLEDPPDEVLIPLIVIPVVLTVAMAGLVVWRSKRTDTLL

[2] = target: human GLP-1 receptor (human, UniProt P43220 24-463); experiment: cell-based or functional assay

B1: Compound 0552 (peptide)
peptide: H[Aib]EGTFTSDVSSYLEEQAAREFIAWLVRGRK([εLys-AEEA-AEEA-γGlu-C20 diacid])GGGGEASELSTAALGRLSAELHELATLPRTETGSGSP-NH2
Human AmyR3 potency [EC50 (pM)] [1]: 6.9 pM | Human GLP-1R potency [EC50 (pM)] [2]: 4.7 pM

B2: Compound 0632 (peptide)
peptide: H[Aib]EGTFTSDVSK([γGlu-γGlu-γGlu-γGlu-C20 diacid])YLEEQAAREFIEWLVRGAAEASELSTAALGRLSAELHELATLPRTETGSGSP-NH2
Human AmyR3 potency [EC50 (pM)] [1]: 148 pM | Human GLP-1R potency [EC50 (pM)] [2]: 18.8 pM

B3: Compound 0578 (peptide)
peptide: H[Aib]EGTFTSDVSK([AEEA-AEEA-γGlu-C16 diacid])YLEEQAARKFIAWLVRGRQEASELSTAALGRLSAELHELATLPRTETGSGSP-NH2
modifications: not fully specified (residue 21)
Human AmyR3 potency [EC50 (pM)] [1]: 26.9 pM | Human GLP-1R potency [EC50 (pM)] [2]: 2.5 pM

B4: Compound 0575 (peptide)
peptide: H[Aib]EGTFTSDVSK([AEEA-AEEA-γGlu-C16 diacid])YLEEQAARK([AEEA-AEEA-γGlu-C16 diacid])FIAWLVRGRQEGGGGGASELSTAALGRLSAELHELATLPRTETGSGSP-NH2
Human AmyR3 potency [EC50 (pM)] [1]: 8.3 pM | Human GLP-1R potency [EC50 (pM)] [2]: 5.6 pM

B5: Compound 0634 (peptide)
peptide: H[Aib]EGTFTSDVSK([γGlu-γGlu-γGlu-γGlu-C16 diacid])YLEEQAARK([γGlu-γGlu-γGlu-γGlu-C16 diacid])FIAWLVRGRGEASELSTAALGRLSAELHELATLPRTETGSGSP-NH2
Human AmyR3 potency [EC50 (pM)] [1]: 59.4 pM | Human GLP-1R potency [EC50 (pM)] [2]: 14.7 pM

B6: Compound 0633 (peptide)
peptide: H[Aib]EGTFTSDVSSYLEEQAARK([γGlu-γGlu-γGlu-γGlu-C20 diacid])FIAWLVRGRGGGGGEASELSTAALGRLSAELHELATLPRTETGSGSP-NH2
Human AmyR3 potency [EC50 (pM)] [1]: 5.3 pM | Human GLP-1R potency [EC50 (pM)] [2]: 28.2 pM

B7: Compound 0528 (peptide)
peptide: H[Aib]EGTFTSDVSK([AEEA-AEEA-γGlu-C16 diacid])YLEEQAAREFIAWLVRGRK([AEEA-AEEA-γGlu-C16 diacid])GGGGEASELSTAALGRLSAELHELATLPRTETGSGSP-NH2
Human AmyR3 potency [EC50 (pM)] [1]: 22 pM | Human GLP-1R potency [EC50 (pM)] [2]: 3.8 pM

B8: Compound 0576 (peptide)
peptide: H[Aib]EGTFTSDVSK([AEEA-AEEA-γGlu-C16 diacid])YLEEQAARKFIEWLVRGRGEGGGGGASELSTAALGRLSAELHELATLPRTETGSGSP-NH2
modifications: not fully specified (residue 21)
Human AmyR3 potency [EC50 (pM)] [1]: 10.1 pM | Human GLP-1R potency [EC50 (pM)] [2]: 2.9 pM

B9: Compound 0562 (peptide)
peptide: H[Aib]EGTFTSDVSSYLEEQAARK([AEEA-AEEA-γGlu-C20 diacid])FIAWLVRGRGGGGGEASELSTAALGRLSAELHELATLPRTETGSGSP-NH2
Human AmyR3 potency [EC50 (pM)] [1]: 4.1 pM | Human GLP-1R potency [EC50 (pM)] [2]: 19.3 pM

B10: Compound 0638 (peptide)
peptide: H[Aib]EGTFTSDVSSYLEEQAAREFIAWLVRGRK([AEEA-AEEA-γGlu-C20 diacid])GGGGSGGGEASELSTAALGRLSAELHELATLPRTETGSGSP-NH2
Human AmyR3 potency [EC50 (pM)] [1]: 6.9 pM | Human GLP-1R potency [EC50 (pM)] [2]: 4.6 pM

B11: Compound 0056 (peptide)
peptide: H[Aib]EGTFTSDVSSYLEGQAAK([AEEA-AEEA-γGlu-C18 diacid])EFIAWLVRGRGK([AEEA-AEEA-γGlu-C18 diacid])QEPGQEPEASELSTAALGRLSAELHELATLPRTETGSGSP-NH2
Human AmyR3 potency [EC50 (pM)] [1]: 120 pM | Human GLP-1R potency [EC50 (pM)] [2]: 41.4 pM

B12: Compound 0561 (peptide)
peptide: H[Aib]EGTFTSDVSSYLEEQAARK([AEEA-AEEA-γGlu-Trx-C20 diacid])FIAWLVRGRGGGGGEASELSTAALGRLSAELHELATLPRTETGSGSP-NH2
Human AmyR3 potency [EC50 (pM)] [1]: 10.7 pM | Human GLP-1R potency [EC50 (pM)] [2]: 17.5 pM

B13: Compound 0057 (peptide)
peptide: H[Aib]EGTFTSDVSSYLEGQAAK([AEEA-AEEA-γGlu-C18 diacid])EFIAWLVRGRGGQEK([AEEA-AEEA-γGlu-C18 diacid])GQEPEASELSTAALGRLSAELHELATLPRTETGSGSP-NH2
Human AmyR3 potency [EC50 (pM)] [1]: 165 pM | Human GLP-1R potency [EC50 (pM)] [2]: 59 pM

B14: Compound 0565 (peptide)
peptide: H[Aib]EGTFTSDVSK([AEEA-AEEA-γGlu-C20 diacid])YLEEQAAREFIAWLVRGRGGGGGEASELSTAALGRLSAELHELATLPRTETGSGSP-NH2
Human AmyR3 potency [EC50 (pM)] [1]: 6.2 pM | Human GLP-1R potency [EC50 (pM)] [2]: 6.4 pM

B15: Compound 0580 (peptide)
peptide: H[Aib]EGTFTSDVSSYLEEQAARK([AEEA-AEEA-γGlu-C20 diacid])FIAWLVRGGASELSTAALGRLSAELHELATLPRTETGSGSP-NH2
Human AmyR3 potency [EC50 (pM)] [1]: 9.3 pM | Human GLP-1R potency [EC50 (pM)] [2]: 7.4 pM

B16: Compound 0577 (peptide)
peptide: H[Aib]EGTFTSDVSK([AEEA-AEEA-γGlu-C16 diacid])YLEEQAARKFIEWLVRGRGEASELSTAALGRLSAELHELATLPRTETGSGSP-NH2
modifications: not fully specified (residue 21)
Human AmyR3 potency [EC50 (pM)] [1]: 19.1 pM | Human GLP-1R potency [EC50 (pM)] [2]: 5.6 pM

B17: Compound 0581 (peptide)
peptide: H[Aib]EGTFTSDVSSYLEEQAARK([AEEA-AEEA-γGlu-C20 diacid])FIEWLVRGASELSTAALGRLSAELHELATLPRTETGSGSP-NH2
Human AmyR3 potency [EC50 (pM)] [1]: 26.4 pM | Human GLP-1R potency [EC50 (pM)] [2]: 17 pM

B18: Compound 0071 (peptide)
peptide: H[Aib]EGTFTSDVSSYLEGQAAK([AEEA-AEEA-γGlu-C18 diacid])EFIAWLVRGRGGQEPGQEPK([AEEA-AEEA-γGlu-C18 diacid])EASELSTAALGRLSAELHELATLPRTETGSGSP-NH2
Human AmyR3 potency [EC50 (pM)] [1]: 159 pM | Human GLP-1R potency [EC50 (pM)] [2]: 69.4 pM

B19: Compound 0529 (peptide)
peptide: H[Aib]EGTFTSDVSSYLEGQAAREFIAWLVRGRGQEPK([AEEA-AEEA-γGlu-C20 diacid])GQAPEASELSTAALGRLSAELHELATLPRTETGSGSP-NH2
Human AmyR3 potency [EC50 (pM)] [1]: 14.1 pM | Human GLP-1R potency [EC50 (pM)] [2]: 6.4 pM

B20: Compound 0637 (peptide)
peptide: H[Aib]EGTFTSDVSSYLEEQAAREFIAWLVRGRK([AEEA-AEEA-γGlu-C18 diacid])GGGGSGGGEASELSTAALGRLSAELHELATLPRTETGSGSP-NH2
Human AmyR3 potency [EC50 (pM)] [1]: 14.1 pM | Human GLP-1R potency [EC50 (pM)] [2]: 1.9 pM

B21: Compound 0630 (peptide)
peptide: H[Aib]EGTFTSDVSK([Ahx-γGlu-γGlu-C16 diacid])YLEEQAARK([Ahx-γGlu-γGlu-C16 diacid])FIEWLVRGAAEASELSTAALGRLSAELHELATLPRTETGSGSP-NH2
Human AmyR3 potency [EC50 (pM)] [1]: 110 pM | Human GLP-1R potency [EC50 (pM)] [2]: 7.1 pM

B22: Compound 0009 (peptide)
peptide: H[Aib]EGTFTSDVSSYLEGQAAREFIAWLVRGK([AEEA-AEEA-γGlu-C18 diacid])GEGEGEEASELSTAALGRLSAELHELATLPRTETGSGSP-NH2
Human AmyR3 potency [EC50 (pM)] [1]: 49.5 pM | Human GLP-1R potency [EC50 (pM)] [2]: 7.9 pM

B23: Compound 0635 (peptide)
peptide: H[Aib]EGTFTSDVSK([AEEA-AEEA-γGlu-C14 diacid])YLEEQAARKFIAWLVRGRK([AEEA-AEEA-γGlu-C14 diacid])GGEASELSTAALGRLSAELHELATLPRTETGSGSP-NH2
modifications: not fully specified (residue 21)
Human AmyR3 potency [EC50 (pM)] [1]: 78.9 pM | Human GLP-1R potency [EC50 (pM)] [2]: 7.3 pM

B24: Compound 0629 (peptide)
peptide: H[Aib]EGTFTSDVSK([AEEA-AEEA-γGlu-C16 diacid])YLEEQAARKFIEWLVRGAAEASELSTAALGRLSAELHELATLPRTETGSGSP-NH2
modifications: not fully specified (residue 21)
Human AmyR3 potency [EC50 (pM)] [1]: 97.5 pM | Human GLP-1R potency [EC50 (pM)] [2]: 7.9 pM

B25: Compound 0539 (peptide)
peptide: H[Aib]EGTFTSDVSSYLEGQAAREFIAWLVRGRGQEPK([AEEA-AEEA-γGlu-Trx-C20 diacid])GQAPEASELSTAALGRLSAELHELATLPRTETGSGSP-NH2
Human AmyR3 potency [EC50 (pM)] [1]: 12.1 pM | Human GLP-1R potency [EC50 (pM)] [2]: 5 pM

B26: Compound 0564 (peptide)
peptide: H[Aib]EGTFTSDVSK([AEEA-Lys])YLEEQAAREFIAWLVRGRGGGGGEASELSTAALGRLSAELHELATLPRTETGSGSP-NH2
modifications: also: Lys on Ado carries two C16 diacid-gGlu-Ado-Ado groups, on its alpha and epsilon amines
Human AmyR3 potency [EC50 (pM)] [1]: 14.5 pM | Human GLP-1R potency [EC50 (pM)] [2]: 24.5 pM
